# Test results as given in the nanobody polyreactivity screen of Harvey et al. (2022).
# Assay: yeast display, Sf9 membrane polyspecificity reagent, FACS + sequencing; frameworks hold sequencing errors
# Method in brief: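 Synthetic nanobody libraries on Saccharomyces cerevisiae BJ5465 were galactose-induced for 36–48 hours, stained 1 hour at 4 °C with 10% biotinylated, detergent-solubilized Sf9 membrane reagent and enriched on streptavidin microbeads. FACS then separated cells into low and high (top ~1%) gates by anti-HA (expression) and streptavidin (reagent binding) fluorescence. Genes were colony-PCR amplified, MiSeq 2 × 250 sequenced and CDR-length filtered. A clone's polyreactivity label is that of its gate of origin.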
row,Sequence,polyreactivity (PSR sort gate)
1,QVQLVESGGGLVQAGGSLRLSCAASGRILGYYAMGWYRQAPGKERELVAAISSGDSTNYADSVKGRFTISRDNAKNTVYLQMNSLKPEDTAVYYCAAKGWIWNPYNYWGQGTQVTVSS,low polyreactivity
2,QVQLVESGGGLVQAGGSLRLSCAASGRTFFVYAMGWYRPAPGKERELVASITLSGGSTYYADSVKGRFTISRDKAKNTVYLQINSLKREDTAGYYCAKGWSRDNDLEREDEYWGHGTQVTVSS,low polyreactivity
3,QVQLVESGGGLVQAGGSLRLSCAPSGRIFGTNDMGWYRQAPGKERELVADITSGGSTNYADSVKGSFTISRDNAMNTVYLPMNSLKPEDSAVYYCNARHHNKVARFDYWGQGTQVTVSS,low polyreactivity
4,QVQLVESGGGLVQAGGSLRLSCAASGIIILWNAMGWDRQAPGKERELVATISWTDGSTSYADSVKGRFTISRDNAKNTVYLQMNSLKPEDTAVYYCNVRHKSYRKSDYWGQGTQVTVSS,low polyreactivity
5,QVQLVESGGGLVQAGGSLRLSCAASGITFPYYAMGWYRQAPGKERELVAAISSSGGSTYYADSVKGRFTISRDNAKNTVYLQMNSLKPEDTAVYYCAAQRYIHYDYWGQGTQVTVSS,high polyreactivity
6,QVQLVESGGGLVQAGGSLRLSCAASGSTFIWYARGWYRQAPGKERELVAAISRSGGSTYYADSVKGRFTISRDNAKNTVYLQMNSLKPEDTAVYYCNTYPTYQYYYWGQGTQVTVSS,high polyreactivity
7,QVQLVESGGGLVQAGGSLRLSCAASGGTFNSNAMGWYRQAPGKERELVASITWRCGTYYADSVKGRFTISRDNAKNTVYLQMNSLKPVDTAVYYCAADTYYKGDYWGQGTQVTVSS,high polyreactivity
8,QVQLVESGGGLVQAGGSLRLSCAASGSIFYRITMGWYRQAPGKERELVAAISTNGGSTYYADSVKGRFTISRDNAKNSVYLQMNSLKPEDTAVYYCAADLRRSDYDYWGQGTQVTVSS,high polyreactivity
9,QDQLVESGGGLDQAGGSLRLSCAATGGIIRQNVMGWYRQPPGKERELVAAISRRGVITYYADSVKGRFTISRDNAKNTVYLQMNSLKPDDTAVYYCNYKPTWDYSYWGQGTQLTVSS,high polyreactivity
10,QVQLVESGGGLVQAGGSLRLSCAASGSIFFARYAMGWYRQAPGKERELVAAITRATSTTYADSVKGRFTISRDNAKNTVYLQMNSLKPEDTAVYYCAATKIGGGSFRPYYYWGQGTQVTVSS,high polyreactivity
11,QDQLVESGGALVQPGGSLRLSCAASGRLLGRYAMGWYRQAPGKDRELVATITSGDDTNYADSVKGRFTISRDNAKNTVYLQMNSLKPEDTAVGYWGQGTQVTVSS,low polyreactivity
12,QVQLVESGGGLVQAGGSLRLSCAASGRIFPTYTMGWYRQAPGKERELVAAIRRGGGRTYYADSVKGRFTISRDNAKNTVYLQMNSLKPEDTAVYYCAAPFYRQSLIEYDYWGQGTQVTVSS,high polyreactivity
13,QVQLVESGGGLVQAGGSLRLSCAASGRTFRYNAMGWYRQAPGKERELVAAITQSGGSTYYADSVWGRFTISRDNAKNTVYLQMNSLKPDDTAVYYCAKVRERINYDYWGQGTQVTVSS,low polyreactivity
14,QVQLVESGGGLVQAGVRLRLSCPASGFIFDWYTMGWYRQAPGKERELVAAITIGGSTDYADSVKGRFTISRDNAKNTVYLQMNSLKPEDTAVYYCNALWYLSGTWYDYWGQGTQVTVSS,low polyreactivity
15,QDQLVESGGGLVQAGGSLRLSCAASGRTFWRNAMGWSRQAPGKEREMVAAINSGGRTYYADAVKGRFTISRDNAKNTVYLQMNSLKPEDTAVYYCAVYVHRFLDGRVRSYRGDYWGQGTQVTVSS,high polyreactivity
16,QVQLVESGGGLVQAGGSLRLSCAASGSTFLPYAMGWYRQAPGKERELVAAITWRTGSTYYADSVKGRFTISRDNAKNTVYLQMNSLKPEDTAVYYCNAKQRGKFDYWGQGTQVTVSS,low polyreactivity
17,QVQLVESGGGLVQAGGSLRLSCAASGLIFLEYAMGWYRQAPGKERELLAAISTSGGSTYYADSVKGRFTISRDNAKNTVYLQMNSLKPEDTAVYYCAAEPVYNYYFHDGDYWGQGTQVTVSS,low polyreactivity
18,QVQLVESGGGLVQAGGSLRLSCAASGFTIWWYAMGWSRRAPGKERELVATITSGGRTNYAYSVKGRFTISRDNAKNTVYLQMTSLKPEDTAVYYCATRQLSKVKDMDYWGQGTQVTVSS,high polyreactivity
19,QVQLVESGGGLVQAGGSLRLSCAASGSTFDRNVMGWNRQAPGKERELVAAISRVSSTNYADSVKGRFTISRDNAKNTVYLQMHSLKPEDTAVYYCAADRAGSIMNYWGQGSQVTVSS,low polyreactivity
20,QVQLVESWGGVVQAGGSLRISCAASGFILARYAMGWYRQAPGKERELVAAIRRSGGGTYYADSVKGRFTISRDNAKYTVYLLMKSLKPEDTAVYYCNRDPTYLAYYINYDSWGQGTQVTVSS,high polyreactivity
21,QVQLVESGGGLVQAGGSLRLSCAASGSIFRWYAMGWYRQAPGKERELVAAISTSGGNTYYADSVKGRFTISRDNAKNTVYLQMNSLKPEDTAVYYCNALWYRSLSYRYDYWGQGTQVTVSS,high polyreactivity
22,QVQLVESGGGLVQAGGSLRLSCAASGFTFITNAMGWYRQAPGNERELVASISIGGSTNYADSVKGRFTISRDNAKNTVYLQMTSLKPEDTAVYYCAARVYRRLFLPGRYGRPLGYWGQGTQVTVSS,high polyreactivity

row,Sequence,polyreactivity (PSR sort gate)
1,QVQLVESGGGLVQAGGSLRLSCAASGSIFVRNAMGWYRQAPGKERELVATITRRGGRTYYADSVKGRFTISRDNAKNTVYLQMNSLKPEDTAVYYCAARVRTATRRFTSYYWGQGTQVTVSS,high polyreactivity
2,QVQHDESGGCLVQAGGSLRLSCAASGITFILYDMGWYREAPGKVRELVASITSGGSTDYADSVKGRFTISRDNAKNTVYLQMNSLKPEDTAVYYCAARYVYPYWYGDYYWGQGTQVTVSS,low polyreactivity
3,QVQLVESGGGLVQAGGSLRLSCAASGRIFYPYAMGWYRQAPGTERELVAAISYSGGSTFYADSVKGRFTISRDNAKNTVYFQMNSLKPEDTAVYFCNKVWFARYWYRDFDYWGQGTQVTVSS,high polyreactivity
4,QVQLVESGGGLVQAGGSLRLSCAASGITFYDNVMGWYRQAPGKERELVAAITSGGSTNYADSVKGRFTISRDNAKNTVYLQMNSLKPEDTAVYYCAAQPRVDYEFPYRYGYWGQGTQVTVSS,low polyreactivity
5,QVQLVESGGGLVQAGGSLRISCAASGYIFAVYAMGWYRQAPGKEREFVAVITWRGGSTYYADSVKGRFTISRDNAKNTVYLQMNSLKPEDTAVYYCAARWHFLTSSRFDYWGQGTQVTVSS,high polyreactivity
6,QVQLVESGGGLVQAGGSLRLSCAASGSIFVSYTMGWYRQAPGKERELVAAITRSGGSTYYADSVKGRFTISRDNAKNTVYLQMNSLKPEDTAVYYCAAGTVDYRGYFEMYFWGQGTQVTVSS,low polyreactivity
7,QVQLVESGGGLVQAGGSLRLSCAASGRIFYSYGMGWYRQAPGKERELVATISIGGSTNYADSVKGRFTISRDNAKNTVYLQMNSLKPEDTAVYYCAARGGTLYSTRSYGYWGQGTQVTVSS,high polyreactivity
8,KVQLVESGGGLVQAGGSLRLSCAPSGSIFPLNARGWYSQAPGKERELVAAISESGGRTYYADSVKGRFTISRDNAKNTVYLQMNSLNPADTAVYHCATVRLARKSAPYDYWGQGTQVTVSS,high polyreactivity
9,QVQLVESGGGLVQAGGSLRLTCASSGIIFKLYAMGWYRQAPAKESELVAAITYRGGTTYYADSVKGRFTITRDNAKNTVYLQMNSLKPEDTAVYYCAVAVTSYSSKKLYYWGQGTQVTVSS,low polyreactivity
10,QVQLVESGGCLVPAGGSLRLSCAASGFIIDWYDMAWYRQAPGKERELVAAITRSAGRTYYADSVKGRFTISRDIAKITVYLQMNSLKPEDTAVYYCAARSSSAGGGDGYWGQGTQVTLSS,high polyreactivity
11,QVQLVETGGGLVQAGGSHRLSCAASGFTFWYNAMGWYRPAPGKERELVAAIDWRGSSTYYADSVNGRFTISRDNAKNTVYLQMNSLKPEDTAVYYCAADFGDRYVYWAQGTQVTVSS,high polyreactivity
12,QVQLVESGGGLDQAGGSLRLSCAASGRTFVVYAMGWYRQAPGKERELVAAITSSGNTYYADSVKGRFTISRDNAKNTVYLQMNSLKPEDTAVYYCAAYSLYGYDYWGQGTQVTVSS,low polyreactivity
13,QVQLVESGGGLVQAGGSLRLSCAASGRTIGLNGMGWYRQAPGNERELVAGISWSGGSTNYADSVKGRFTISRDNAKNTVYLQMNSLKPEDTAVNYCPPDFVYYVVNDFGWSYAYEYWGQGTQVTVSS,low polyreactivity
14,QVQLVESGGGLVQAGGSLRLSCAASGSTFGYYAMGWSRQAPGKERELVAAIRWSGGSTYADSVKGRFTISRDNAKNTVYLQMNSLKPEDTAVYYCAQYRWYGSVLGGYWGQGTQVTVSS,high polyreactivity
15,QVQLVESGGGLVQAGGSLRLSCAASGGTFDPSAMGWYRQAPGKERDFVAAISWSGGRTYYADSVKGRFTISRDNAKNTVYLQMNSLKPEDTAVYYCAATSVGYAQRRYGYWGQGTQVTVSS,high polyreactivity
16,QVQLVESGGGLVQAGGSLRLSCAASGRTFGLYAMGWYRQAPGKERELVAAIDQSTGSTYYADSVKGRFTISRDHAKNTVYLQMNSLKPEDTAVYYCAAEEASTVRYYWYDYWGQGTQVTVSS,high polyreactivity
17,QVQLVESGGGLVQAGGSLRLSFAASGLIFPSYTMGWYRQAPGNYGELVAGINSGGSTNYAESVMGRFTISRDIAKNTDYLQMNSQKAEHTAVYYCAKDNNYYWYVSPRDYWGQGTQVTVSS,low polyreactivity
18,QVQLVESGGGLVQAGGSLRLSCAASGRIFRINAMGWYRQAPGKERELVASISRRGGNTYYADSVKGRFTISRDNAKNTVYLQMNSLKPEDTAVYYCAADTYQERTFDYWGQGTQVTVSS,low polyreactivity
19,LVQLVESGGGLVQAGGSLRLSCAASGFIFAIYDMGWYRQAPGKERELVAAITSSSSTYADSVKGRFTISRDNAKNTVYLQMNSLKPEDTAVYYCAADTYSYRYSNDYWGQGTQVTVSS,low polyreactivity
20,QVQLVESVGGLVQAGGRLRLSCAASGSTFAFNAMGWSRQAPGKEREFVAVISYRTDNTYYADSVKGRFTISRDNAKNTVYLQMNSLKPEDTAVYYCAAASSYSKKPYYSYGYWGQGTQVTVSS,high polyreactivity
21,QVQLVESGGGLVQAGGSLRLSCAASGSTFAFYAMGWYRQAPGKERELVAAISRSGGRTYYADSVKGRFTISRDNAKNTVYLQMNSLKPEDTAVYYFAAPSSITTGPHREYDYWGQGTQVTVSS,high polyreactivity
